The record followed here is patent US20050069921, “Compositions, kits, and methods for stimulation of homologous recombination” (published 2005).

Positions count from the first letter of the chain named.

In one data set the test system is I-SceI. The data set is described as follows: cell_activity. The conditions noted are these: homologous recombination; about 2.5-fold fewer broken ends than wild-type core RAG.
Data set [1] deals with T1, RAG-1/RAG-2 core, wild type (Mus musculus, UniProt P15919;P21784 P15919:330-1040,P21784:1-387).
T1 sequence 1: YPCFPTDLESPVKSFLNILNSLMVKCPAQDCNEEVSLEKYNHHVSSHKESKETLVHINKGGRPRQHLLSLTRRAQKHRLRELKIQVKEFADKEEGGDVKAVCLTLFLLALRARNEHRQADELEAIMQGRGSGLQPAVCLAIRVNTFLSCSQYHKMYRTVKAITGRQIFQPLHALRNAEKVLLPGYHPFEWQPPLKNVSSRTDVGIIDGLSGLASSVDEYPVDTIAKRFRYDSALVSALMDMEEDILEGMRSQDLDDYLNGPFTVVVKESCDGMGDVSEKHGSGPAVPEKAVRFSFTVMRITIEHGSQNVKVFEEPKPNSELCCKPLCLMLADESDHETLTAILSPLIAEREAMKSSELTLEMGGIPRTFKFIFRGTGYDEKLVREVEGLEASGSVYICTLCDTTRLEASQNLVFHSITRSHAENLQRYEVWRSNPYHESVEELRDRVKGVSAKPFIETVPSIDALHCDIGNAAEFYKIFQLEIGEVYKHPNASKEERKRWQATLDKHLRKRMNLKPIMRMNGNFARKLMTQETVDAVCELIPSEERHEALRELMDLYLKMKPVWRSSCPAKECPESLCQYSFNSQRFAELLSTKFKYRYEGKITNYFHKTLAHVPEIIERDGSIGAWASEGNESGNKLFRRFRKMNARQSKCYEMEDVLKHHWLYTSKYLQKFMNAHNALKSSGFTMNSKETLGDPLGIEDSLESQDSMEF
T1 sequence 2: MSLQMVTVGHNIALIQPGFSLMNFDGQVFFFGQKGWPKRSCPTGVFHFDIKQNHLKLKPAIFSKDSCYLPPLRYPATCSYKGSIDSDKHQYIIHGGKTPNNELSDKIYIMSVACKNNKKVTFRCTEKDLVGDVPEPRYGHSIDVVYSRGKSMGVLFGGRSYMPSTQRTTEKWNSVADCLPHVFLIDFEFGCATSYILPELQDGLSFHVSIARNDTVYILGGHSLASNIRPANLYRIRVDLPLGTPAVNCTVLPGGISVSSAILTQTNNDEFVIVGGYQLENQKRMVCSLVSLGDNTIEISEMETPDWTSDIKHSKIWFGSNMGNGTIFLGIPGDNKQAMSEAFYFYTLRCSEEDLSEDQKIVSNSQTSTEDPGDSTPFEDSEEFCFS
The data set is described as follows: cell_activity. The conditions noted are these: homologous recombination, extrachromosomal; cleavage seen by Southern blot (FIG. 3C).

The target of data set [2] is T2, RAG-1 R838A/K839A/R840A core/RAG-2 core RAG-1 R838A/K839A/R840A (Mus musculus) (UniProt P15919+P21784).
T2 sequence 1: T1 sequence 1 with R509A, K510A, R511A
T2 sequence 2: T1 sequence 2
The data set is described as follows: cell_activity. As to conditions: homologous recombination; signal ends 2.5-fold lower than wild type (FIG. 3C).

Another data set has as its target RAG-1/RAG-2 full-length (UniProt P15919;P21784 P15919:1-1040,P21784:1-527). Put plainly: cell_activity; homologous recombination, integrated single 12-RSS substrate. The conditions noted are these: chain copies: 2,2. How it is done: (§1) Relative stimulation is calculated by dividing the percentage of CFP-positive cells of experimental (nuclease-containing) transfections by the percentage of CFP-positive cells present in the DDE RAG mutant expressing transfection (negative control). It is important to maintain constant (DNA) in each transfection because increases in DNA (including non-substrate molecules) nonspecifically stimulate homologous recombination, as recently reported (Hostager et al., 2003). Experiments have been repeated over a dozen times on three different flow cytometers; FIGS. 3, 4, 6, and 7 show data from five experiments on the Becton Dickinson LSRII.
(§2) The next set of experiments took a complementary approach. Instead of using nick-only RAG proteins, a nick-only substrate was used (i.e., a single 12-RSS, which readily undergoes nicking in vitro (Cuomo et al., 1996; Ramsden et al., 1996) but yields very poor DSB formation in vivo (Steen et al., 1997)). […] Even when the nick-only mutants are assayed on the single RSS substrate, they are able to stimulate homologous recombination as efficiently as the full-length or core wild-type RAG proteins (FIG. 7). […]

The target of data set [3] is T1, RAG-1/RAG-2 core, wild type. Put plainly: cell_activity; homologous recombination, integrated single 12-RSS substrate; robust also for full-length RAG. As to conditions: tags: GST-RAG-1 core (pEBG-1DN) and RAG-2 core (pMal-1 vector); chain copies: 2,2. How it is done:
as §1, §2

In the case of I-SceI site substrate, in the data set with I-SceI, the activity (fold over wild-type core RAG) was 9.

For “SE substrate (pJH289 recombination zone, 12/23 RSS pair)”, the activity (fold over DDE) in data set [1] turned out to be 13; in data set [2] it was 205.

B1: 12-RSS substrate (dsDNA)
DNA 1: CACAGTGCTACAGACTGGAACAAAAACC
DNA 2: GGTTTTTGTTCCAGTCTGTAGCACTGTG
Take B1: the activity (in the data set with RAG-1/RAG-2 full-length; in data set [3]) was 15 fold over DDE each time.
